For one substance, Kd, koff and kon results are on record in PMC12501226.

For this test, the target named is Recombinant SARS-CoV-1 spike protein 2P (residues 12-1193) (SARS-CoV-1) (UniProt P59594). Put plainly: SPR.

Consider “ACE2 monomer (human extracellular ACE2 domain, residues 18-615, cut from ACE2-TEV-Fc) (from UniProt Q9BYF1 18-615) (domain or fragment)”, for which the Kd was 71 nM, the koff came out at 0.0016 s⁻¹ and the kon came out at 170000 M⁻¹ s⁻¹.
